{"source": "paper PMC12276012", "about": "“Molecular mechanisms of biomolecular condensate formation in Drosophila melanogaster siRNA biogenesis”", "biological_target": "T1, Loqs-PD 1,2-mut (Drosophila melanogaster, UniProt Q9VJY9-4 1-359, K189A;K190A;K301A;K302A)", "T1 sequence": "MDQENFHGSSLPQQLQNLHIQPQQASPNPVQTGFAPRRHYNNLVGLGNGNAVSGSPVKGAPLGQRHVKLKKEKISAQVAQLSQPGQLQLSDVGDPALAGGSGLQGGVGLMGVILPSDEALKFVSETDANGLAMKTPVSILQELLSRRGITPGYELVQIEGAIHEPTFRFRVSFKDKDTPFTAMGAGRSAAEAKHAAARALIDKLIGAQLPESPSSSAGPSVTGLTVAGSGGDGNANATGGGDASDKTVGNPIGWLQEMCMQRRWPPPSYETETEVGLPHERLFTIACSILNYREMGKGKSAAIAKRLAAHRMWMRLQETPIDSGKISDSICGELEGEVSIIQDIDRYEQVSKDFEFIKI", "test": "EMSA; 400 nM RNA, 400-3200 nM protein; EMSA: 20 mM sodium phosphate pH 6.5, 150 mM NaCl, 15% glycerol, 15 min, 1% agarose 1x TBE; NMR: 20 mM sodium phosphate pH 6.5, PS-I or PS-II buffer (50-500 mM NaCl), 292 K for Loqs-PD deltaC", "conditions": "protein: recombinant; tags: His6-GB1 or His6 tag, cleaved by TEV; label: 3' Cy5; hairpin, 21 bp stem, GUGA loop", "data": [{"binder": "GGAGCUUUCAAAAUGAUCUCCGUGAGGAGAUCAUUUUGAAAGCUCC (structured_RNA, 3' pCp-Cy5 ligated (adds one C))", "note": "[21 bp hairpin dsRNA, Cy5]", "values": [{"measurement": "binding result", "value": "no binding"}]}]}
